Data on three molecules can be found in US20100036106, “High-Affinity RNA Aptamer Molecule Against Glutathione-S-Transferase Protein” (NEC Soft, Ltd., published 2010).

This data set deals with Glutathione S-transferase (GST) (Schistosoma japonicum, UniProt P08515 P08515:2-218). The experiment in a line: SPR; Kd fitted with BIA Evolution 3.1 but value only in figure; RNA immobilized via poly(A)/poly(dT). The note with it: chain copies: 2 inferred. The source says: Synthetic biotinylated polydT (Hokkaido System Science) is allowed to bind to the surface of an SA BIACORE chip (Biacore). The single-stranded RNA molecules (RNA adaptor molecules) comprising polyA (Aₙ) added on the 5′-terminal side are annealed with the synthetic biotinylated polydT immobilized on the chip surface. As a result, the single-stranded RNA molecules (RNA adaptor molecules) are immobilized thereon via the hybrid bonding between the polydT and the polyA (Aₙ).
This chip on which the single-stranded RNA molecules (RNA adaptor molecules) are immobilized is utilized to measure the process of formation of complexes of the single-stranded RNA molecules (RNA adaptor molecules) and GST proteins and the process of dissociation thereof by use of a surface plasmon resonance detection apparatus. The results are analyzed to determine the equilibrium dissociation constants of the complexes.
Parameter fitting is conducted by use of BIA Evolution ver. 3.1 for the concentrations of the GST protein in the poured GST protein solutions and the time-dependent changes in signal intensity measured in this process, to thereby determine equilibrium dissociation constant KD.
On the technique in general: In SPR one partner is held on a chip, and binding of the other changes the refractive index at the surface.

Chain of Glutathione S-transferase (GST) (P08515 2-218, one chain of several): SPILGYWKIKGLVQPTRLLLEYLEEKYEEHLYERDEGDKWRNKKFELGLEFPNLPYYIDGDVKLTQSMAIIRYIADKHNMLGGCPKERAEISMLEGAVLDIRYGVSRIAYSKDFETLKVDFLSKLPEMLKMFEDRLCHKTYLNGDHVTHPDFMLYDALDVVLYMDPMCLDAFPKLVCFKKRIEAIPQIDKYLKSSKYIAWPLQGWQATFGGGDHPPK

B1: No. 26 clone RNA aptamer with 5' poly(A) (ssRNA)
RNA: GGUAGAUACGAUGGAUACCGAAAAAUUAGUGUCGUUGACUGCAACAUGACGCGCAGCCAA
In the case of B1, the binding result is listed as “binds”.

B2: No. 5 clone RNA aptamer with 5' poly(A) (ssRNA)
RNA: GGUAGAUACGAUGGACUAACUGCGCAAAUUACUCGUAUUAGCCGACAUGACGCGCAGCCAA
For the molecule B2, the binding result is recorded as “binds”.

B3: No. 3 clone RNA aptamer with 5' poly(A) (ssRNA)
RNA: GGUAGAUACGAUGGAUGGUUGUGUAAAGGUGGUCGUAUCCGCCGACAUGACGCGCAGCCAA
As for B3, the binding result is on record as “binds”.
